# B1: GaletuzuFab-PAS200-Cys (Fab, V domains shown)
# VH: QIQLVQSGAEVKKPGESLKISCKVSGYTFTDYAIHWVRQMPGKGLKWMGWINTYTGKPIYADDFKGQVIISLDKSINTAYLQWSSLKASDTAIYYCARGTMMASLDYWGQGTTVTVSS
# VL: DVVMTQSPSSLSASVGDRVTITCKSSQSLVHSDGKTYLSWIQQKPGKAPKGLIYLVSKLDSGVPSRFSGSGSETDFTLTISSLQPEDSATYYCWQATHFPLTFGPGTKVDIR
# Molecular target: full length human galectin-3 (hGal3), Cys173 mutated to Thr (human, UniProt P17931 1-250, Cys173 mutated to Thr)
# Experiment: SPR
# Sequence of full length human galectin-3 (hGal3), Cys173 mutated to Thr (P17931 other isoform, or with tags, fused parts or gaps Cys173 mutated to Thr): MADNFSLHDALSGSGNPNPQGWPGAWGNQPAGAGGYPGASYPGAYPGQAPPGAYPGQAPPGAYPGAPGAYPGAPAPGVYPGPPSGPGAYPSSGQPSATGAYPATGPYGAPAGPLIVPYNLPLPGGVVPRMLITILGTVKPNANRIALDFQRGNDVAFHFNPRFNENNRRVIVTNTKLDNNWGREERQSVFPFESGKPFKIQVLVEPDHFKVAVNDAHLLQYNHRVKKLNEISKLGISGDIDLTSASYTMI
binder,measurement,value
B1,Kd,0.31 nM

# — PMC8016950 (2021)
